Experimental data taken from patent US20090291890A1 (published 2009).

How the values were obtained:
[1] = molecular target: T1, soluble tissue factor (recombinant human Coagulation Factor III/soluble tissue factor; R&D Systems) (human); test: SPR (Biacore T100), sTF on chip, two-state fit; FVIIa made in CHOX cells
T1 chain: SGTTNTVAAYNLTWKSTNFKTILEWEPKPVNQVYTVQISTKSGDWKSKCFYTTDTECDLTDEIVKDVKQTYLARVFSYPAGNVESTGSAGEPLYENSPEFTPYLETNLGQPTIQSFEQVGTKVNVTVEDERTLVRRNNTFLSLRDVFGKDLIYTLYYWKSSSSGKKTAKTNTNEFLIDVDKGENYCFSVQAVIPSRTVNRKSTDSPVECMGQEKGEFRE

[2] = molecular target: T1, soluble tissue factor (recombinant …); test: SPR (Biacore T100), sTF on chip, two-state fit
[3] = molecular target: Factor X (FX) (Homo sapiens (Human)) (UniProt P00742)
Chain of Factor X (FX) (Homo sapiens (Human)) (P00742 41-488 limits assumed): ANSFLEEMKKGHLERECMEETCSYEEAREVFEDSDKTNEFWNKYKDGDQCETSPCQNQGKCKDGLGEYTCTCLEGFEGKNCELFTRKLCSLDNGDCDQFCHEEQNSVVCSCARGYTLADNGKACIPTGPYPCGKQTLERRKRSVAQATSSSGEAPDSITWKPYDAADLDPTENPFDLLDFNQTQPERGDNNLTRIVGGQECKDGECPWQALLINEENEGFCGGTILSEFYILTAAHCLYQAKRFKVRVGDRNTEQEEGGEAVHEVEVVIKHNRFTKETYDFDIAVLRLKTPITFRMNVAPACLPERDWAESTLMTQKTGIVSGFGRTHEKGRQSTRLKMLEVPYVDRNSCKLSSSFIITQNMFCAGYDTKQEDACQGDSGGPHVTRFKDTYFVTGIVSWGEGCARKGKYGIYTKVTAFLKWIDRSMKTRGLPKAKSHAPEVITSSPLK

[4] = molecular target: T1, soluble tissue factor (recombinant …); test: SPR (Biacore T100), sTF on chip, two-state fit; FVIIa made in CHOX stable cell line clone 52-5F7

Affinity Kd-WT/Kd-mut [1]: 1.1
Kd [1]: 3.6 nM
Affinity Kd-WT/Kd-mut [2]: 1.9
Kd [2]: 4.1 nM
kcat/KM, TF-Dependent Indirect Assay [3]: 1.85e+08 M⁻¹ s⁻¹
Kd [4]: 3.2 nM
B1: FVIIa Q286R/M298Q (enzyme)
chain: ANAFLEELRPGSLERECKEEQCSFEEAREIFKDAERTKLFWISYSDGDQCASSPCQNGGSCKDQLQSYICFCLPAFEGRNCETHKDDQLICVNENGGCEQYCSDHTGTKRSCRCHEGYSLLADGVSCTPTVEYPCGKIPILEKRNASKPQGRIVGGKVCPKGECPWQVLLLVNGAQLCGGTLINTIWVVSAAHCFDKIKNWRNLIAVLGEHDLSEHDGDEQSRRVAQVIIPSTYVPGTTNHDIALLRLHQPVVLTDHVVPLCLPERTFSERTLAFVRFSLVSGWGRLLDRGATALELQVLNVPRLMTQDCLQQSRKVGDSPNITEYMFCAGYSDGSKDSCKGDSGGPHATHYRGTWYLTGIVSWGQGCATVGHFGVYTRVSQYIEWLQKLMRSEPRPGVLLRAPFP
